How the values were obtained:
[1] = target: T1, mouse CD36 fused with a FLAG-tag at its C terminus, overexpressed on HEK293 cells (mouse, UniProt Q08857 1-472); experiment: confocal microscopy of HEK293 cells overexpressing mouse CD36-FLAG, cultured with mouse AIM for 3 hours
T1 construct: whole, on cells; also called CD36-FLAG; not shown: C-terminal FLAG tag
Method: CD36 is a twice-transmembrane-type molecule, is expressed on adipocytes and macrophages, and is involved in intracellular internalization of many molecules including fatty acids, LDL, and the like. Thus, HEK293 cells in which mouse CD36 fused with a FLAG-tag at its C terminus was overexpressed were produced, and the cells were cultured with mouse AIM for 3 hours. Subsequently, the cells were collected, stained using an anti-AIM antibody and an anti-CD36 antibody, and observed under a confocal microscope.

[2] = target: T2, endogenous FAS (fatty acid synthase) in mouse adipocytes (mouse, UniProt P19096 1-2504); experiment: precipitation of endocytosed HA-tagged rAIM from lysates of mouse adipose tissue with an anti-HA antibody, Western blot for FAS
T2 construct: also called cytosolic FAS
Method: Further, the endocytosed rAIM was precipitated using lysates derived from those adipose tissues to examine whether endogenous FAS was co-precipitated or not. That is, the presence of FAS in the precipitate was analyzed by Western blotting using HA-tagged rAIM and an anti-HA antibody.

T1 sequence (Q08857 whole entry, the tested form may be a part): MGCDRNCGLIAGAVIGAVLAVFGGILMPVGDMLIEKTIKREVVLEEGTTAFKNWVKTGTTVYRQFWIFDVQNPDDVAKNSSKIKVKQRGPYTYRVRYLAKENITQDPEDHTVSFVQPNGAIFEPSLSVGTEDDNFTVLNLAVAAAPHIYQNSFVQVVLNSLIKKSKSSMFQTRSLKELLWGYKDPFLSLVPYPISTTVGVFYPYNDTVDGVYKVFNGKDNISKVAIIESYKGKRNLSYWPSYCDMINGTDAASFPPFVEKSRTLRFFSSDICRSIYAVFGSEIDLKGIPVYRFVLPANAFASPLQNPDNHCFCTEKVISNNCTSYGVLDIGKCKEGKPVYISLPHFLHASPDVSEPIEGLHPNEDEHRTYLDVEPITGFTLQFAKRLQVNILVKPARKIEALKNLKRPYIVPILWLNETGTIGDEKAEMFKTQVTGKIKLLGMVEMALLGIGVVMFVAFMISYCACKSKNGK
T2 sequence (P19096 whole entry): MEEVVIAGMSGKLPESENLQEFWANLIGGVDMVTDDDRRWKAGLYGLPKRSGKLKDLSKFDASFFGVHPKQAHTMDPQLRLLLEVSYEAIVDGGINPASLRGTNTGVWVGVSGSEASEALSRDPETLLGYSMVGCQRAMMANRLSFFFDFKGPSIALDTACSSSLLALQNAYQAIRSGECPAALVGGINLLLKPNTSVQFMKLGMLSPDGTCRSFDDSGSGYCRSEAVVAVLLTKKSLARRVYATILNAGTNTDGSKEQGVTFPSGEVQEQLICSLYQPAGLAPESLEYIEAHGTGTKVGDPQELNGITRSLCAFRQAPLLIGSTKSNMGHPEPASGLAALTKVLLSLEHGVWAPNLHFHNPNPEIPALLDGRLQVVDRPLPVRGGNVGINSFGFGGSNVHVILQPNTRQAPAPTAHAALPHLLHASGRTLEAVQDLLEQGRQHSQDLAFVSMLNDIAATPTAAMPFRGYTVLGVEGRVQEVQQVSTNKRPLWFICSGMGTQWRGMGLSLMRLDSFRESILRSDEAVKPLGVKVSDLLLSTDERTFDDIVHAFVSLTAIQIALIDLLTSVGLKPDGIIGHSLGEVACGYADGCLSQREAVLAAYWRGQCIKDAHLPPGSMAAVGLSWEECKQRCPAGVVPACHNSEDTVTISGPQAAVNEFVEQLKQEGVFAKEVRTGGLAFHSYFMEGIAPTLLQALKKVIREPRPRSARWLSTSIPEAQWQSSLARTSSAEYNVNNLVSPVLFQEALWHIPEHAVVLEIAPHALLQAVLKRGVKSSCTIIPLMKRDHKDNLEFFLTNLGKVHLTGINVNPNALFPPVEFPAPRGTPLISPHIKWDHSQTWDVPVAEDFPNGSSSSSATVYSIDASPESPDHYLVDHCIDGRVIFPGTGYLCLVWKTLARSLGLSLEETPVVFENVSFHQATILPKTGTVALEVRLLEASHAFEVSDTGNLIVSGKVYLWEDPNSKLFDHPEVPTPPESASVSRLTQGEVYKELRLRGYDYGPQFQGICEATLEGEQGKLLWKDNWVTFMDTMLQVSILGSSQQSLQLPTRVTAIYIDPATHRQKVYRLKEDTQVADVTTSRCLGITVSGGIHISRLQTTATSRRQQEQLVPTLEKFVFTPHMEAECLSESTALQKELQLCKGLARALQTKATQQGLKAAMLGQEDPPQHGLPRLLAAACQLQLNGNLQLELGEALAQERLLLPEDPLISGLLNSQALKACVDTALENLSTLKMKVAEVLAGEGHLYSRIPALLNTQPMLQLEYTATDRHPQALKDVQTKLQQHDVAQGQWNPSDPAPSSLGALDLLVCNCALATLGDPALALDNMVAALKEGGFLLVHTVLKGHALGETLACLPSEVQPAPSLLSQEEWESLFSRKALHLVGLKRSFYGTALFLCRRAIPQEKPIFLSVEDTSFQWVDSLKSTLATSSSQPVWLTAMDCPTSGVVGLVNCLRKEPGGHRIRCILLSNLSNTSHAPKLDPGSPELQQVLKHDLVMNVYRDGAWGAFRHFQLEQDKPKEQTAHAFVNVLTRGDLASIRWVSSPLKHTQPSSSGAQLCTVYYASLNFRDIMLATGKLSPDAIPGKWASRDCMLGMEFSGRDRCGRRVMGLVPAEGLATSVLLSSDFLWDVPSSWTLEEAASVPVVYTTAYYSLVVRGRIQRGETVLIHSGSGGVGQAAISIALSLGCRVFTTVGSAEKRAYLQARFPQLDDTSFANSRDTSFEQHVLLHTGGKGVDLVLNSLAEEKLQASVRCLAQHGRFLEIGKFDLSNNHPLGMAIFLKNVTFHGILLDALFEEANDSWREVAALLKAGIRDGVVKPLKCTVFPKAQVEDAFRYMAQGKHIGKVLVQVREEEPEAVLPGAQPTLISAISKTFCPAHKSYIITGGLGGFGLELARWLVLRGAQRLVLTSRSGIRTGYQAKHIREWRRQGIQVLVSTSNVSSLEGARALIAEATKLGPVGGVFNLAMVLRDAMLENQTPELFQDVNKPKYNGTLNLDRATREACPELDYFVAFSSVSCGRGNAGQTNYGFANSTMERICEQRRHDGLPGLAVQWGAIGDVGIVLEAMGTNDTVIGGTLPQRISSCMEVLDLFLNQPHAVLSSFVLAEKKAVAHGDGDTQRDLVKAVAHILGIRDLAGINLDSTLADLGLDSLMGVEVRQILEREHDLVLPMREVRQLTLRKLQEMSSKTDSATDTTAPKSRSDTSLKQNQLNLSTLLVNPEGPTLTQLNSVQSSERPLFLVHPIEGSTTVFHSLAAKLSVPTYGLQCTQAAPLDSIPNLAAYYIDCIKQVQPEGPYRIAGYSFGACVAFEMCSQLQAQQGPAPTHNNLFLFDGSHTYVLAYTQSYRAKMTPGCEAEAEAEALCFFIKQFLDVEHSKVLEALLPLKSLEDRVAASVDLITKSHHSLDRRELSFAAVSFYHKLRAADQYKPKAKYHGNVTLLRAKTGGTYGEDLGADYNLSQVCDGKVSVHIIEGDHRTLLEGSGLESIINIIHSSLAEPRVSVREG

B1: recombinant mouse AIM protein (other)
chain: ESPTKVQLVGGAHRCEGRVEVEHNGQWGTVCDDGWDRRDVAVVCRELNCGAVIQTPRGASYQPPASEQRVLIQGVDCNGTEDTLAQCELNYYVFDCSHEEDAGAQCENPDSDLLFIPEDVRLVDGPGHCQGRVEVLHQSQWSTVCKAGWNLQVSKVVCRQLGCGRALLTYGSCNKNTQGKGPIWMGKMSCSGQEANLRSCLLSRLENNCTHGEDTWMECEDPFELKLVGGDTPCSGRLEVLHKGSWGSVCDDNWGEKEDQVVCKQLGCGKSLHPSPKTRKIYGPGAGRIWLDDVNCSGKEQSLEFCRHRLWGYHDCTHKEDVEVICTDFDV
notes: no cleavage site is stated; also called Mouse rAIM; rAIM
- binding result [1]: binds

B2: mouse AIM (apoptosis inhibitor of macrophage) fused with an HA-tag (other)
chain: B1 chain
notes: also called HA-AIM; AIM tagged with HA; not shown: HA tag
- binding result [2]: binds

From patent US20120202747A1 (TORU MIYAZAKI, published 2012)
